{"source": "patent US10081667B2", "about": "“Composition and method for therapeutic agent delivery during pregnancy” (University of Mississippi Medical Center, priority 2013, dated 2018)", "key": {"[1]": {"tested_on": "endothelial cells (HUVECs)", "experiment": "Cellular internalization by fluorescence microscopy, HUVECs", "type": "cell-based, human", "conditions": "1 h exposure, imaged 24 h", "procedure": "(§1) FIG. 18 includes images showing the cellular internalization of SynB1-ELP delivered NOX peptide. Rhodamine-labeled SynB1-ELP-NOX was exposed to cells for 1 h, cells were washed, fresh media was returned, and images were collected 24 h after initial exposure.\n(§2) It is confirmed that the SynB1-ELP-NOX polypeptide was internalized by cells. Both endothelial cells (HUVECs) and chorionic cells (BeWo choriocarcinoma cells) were exposed to fluorescently labeled SynB1-ELP-NOX for 1 h. The cells were then washed and given fresh media for 24 h."}, "[2]": {"tested_on": "BeWo choriocarcinoma cells", "experiment": "Cellular internalization by fluorescence microscopy, BeWo cells", "type": "cell-based", "conditions": "1 h exposure, imaged 24 h", "procedure": "as §1, §2"}, "[3]": {"tested_on": "placental chorionic villous explants", "experiment": "ROS production in placental chorionic villous explants, dihydroethidium (DHE) assay", "type": "cell-based, rat", "conditions": "20 or 50 μM, 1% O2, 48 h", "procedure": "FIG. 19 includes a graph showing inhibition of reactive oxygen species production of placental villous explants. Villous explants were dissected from rat placentas at day 19 of gestation. Explants were grown ex vivo on a bed of Matrigel in cell culture medium. 24 h after equilibration of explants, media was replaced with media plus SynB1-ELP or SynB1-ELP-NOX, and explants were incubated at 37° C. in a 6% or 1% O2 environment for 48 h. ROS was detected by incubation with 5 μM dihydroethdium for 1 hour, and fluorescence was measured using a florescence plate reader. The assay was performed in triplicate, and data represent the mean±s.e. of three independent experiments each performed with 4 explants per treatment group. *p<0.01, one way ANOVA with post-hoc Bonferonni multiple comparison.\nChorionic villous explants were cut on GD19 and cultured ex vivo on Matrigel coated wells with complete cell culture medium. After equilibration, culture medium was replaced with medium containing SynB1-ELP-NOX or the SynB1-ELP control polypeptides at 20 or 50 μM, and explants were incubated at 6% O2 (representing a healthy placenta) or 1% O2 (representing a preeclamptic placenta). After 48 h exposure to hypoxia, detection of ROS was performed using the dihydroethidium (DHE) assay."}}, "data": [{"molecule": "SynB1-ELP-NOX: SynB1 peptide fused to the N-terminus of ELP (SEQ ID NO: 4), NOX peptide at the C-terminus; SEQ ID NO: 16 (protein, synthetic SynB1-ELP-NOX sequence) MRGGRLSYSRRRFSTSTGRGCGPGVGVPGAGVPGGGVPGAGVPGGGVPGAGVPGGGVPGAGVPGGGVPGAGVPGGGVPGAGVPGGGVPGAGVPGGGVPGAGVPGVGVPGAGVPGGGVPGAGVPGGGVPGAGVPGGGVPGAGVPGGGVPGAGVPGGGVPGAGVPGGGVPGAGVPGGGVPGAGVPGVGVPGAGVPGGGVPGAGVPGGGVPGAGVPGGGVPGAGVPGGGVPGAGVPGGGVPGAGVPGGGVPGAGVPGGGVPGAGVPGVGVPGAGVPGGGVPGAGVPGGGVPGAGVPGGGVPGAGVPGGGVPGAGVPGGGVPGAGVPGGGVPGAGVPGGGVPGAGVPGVGVPGAGVPGGGVPGAGVPGGGVPGAGVPGGGVPGAGVPGGGVPGAGVPGGGVPGAGVPGGGVPGAGVPGGGVPGAGVPGVGVPGAGVPGGGVPGAGVPGGGVPGAGVPGGGVPGAGVPGGGVPGAGVPGGGVPGAGVPGGGVPGAGVPGGGVPGAGVPGVGVPGAGVPGGGVPGAGVPGGGVPGAGVPGGGVPGAGVPGGGVPGAGVPGGGVPGAGVPGGGVPGAGVPGGGVPGAGVPGVGVPGAGVPGGGVPGAGVPGGGVPGAGVPGGGVPGAGVPGGGVPGAGVPGGGVPGAGVPGGGVPGAGVPGGGVPGAGVPGVGVPGAGVPGGGVPGAGVPGGGVPGAGVPGGGVPGAGVPGGGVPGAGVPGGGVPGAGVPGGGVPGAGVPGGGVPGAGVPGVGVPGAGVPGGGVPGAGVPGGGVPGAGVPGGGVPGAGVPGGGVPGAGVPGGGVPGAGVPGGGVPGAGVPGGGVPGAGVPGWPGSGGCSTRIRRQL", "values": [{"measurement": "internalization in HUVECs", "setting": "[1]", "result": "detectable in a punctate cytoplasmic distribution in both cell lines"}, {"measurement": "internalization in BeWo cells", "setting": "[2]", "result": "detectable in a punctate cytoplasmic distribution in both cell lines"}, {"measurement": "ROS production of hypoxic explants", "setting": "[3]", "result": "inhibited this ROS production"}]}]}
